Our source for the other: Log2 T156A : WT ratio and other: Log2 T156E : WT ratio values is paper PMC10022743.

Targets include VTI1B; NSF; SEC22B; SNAP23; BET1; STX5; SEC24C; NAPA; VAMP8.
What all share (assay): immunoprecipitation followed by mass spectrometry
Common to all, as to settings: 2 h EBSS and 300 nM Torin 1; YKT6 siRNA-treated HEK293T WT cells; read off a plot

As for “HA–YKT6-WT (full-length, siRNA-resistant) (from UniProt O15498) T156A”, the other: Log2 T156A : WT ratio is 1.4 log2 with VTI1B; 2.3 log2 with NSF; 1.9 log2 in the assay with SEC22B; 2.8 log2 with SNAP23; 0.27 log2 with BET1; 1.2 log2 with STX5. The other: Log2 T156A : WT ratio turned out to be 0.67 log2 in the assay with SEC24C, 1.6 log2 with NAPA and 1 log2 with VAMP8.

Regarding “HA–YKT6-WT (full-length, siRNA-resistant) (from UniProt O15498) T156E”, the other: Log2 T156E : WT ratio with VTI1B is -0.7 log2; in the assay with NSF it was -0.3 log2; with SEC22B, -1.3 log2; in the assay with SNAP23 it was -1.5 log2; with BET1 it was -4.4 log2; with STX5, -0.7 log2. In addition, the other: Log2 T156E : WT ratio in the assay with SEC24C was 0.18 log2; with NAPA, -0.8 log2; with VAMP8, -2 log2.
